Target: T1, Ebola VP40 (1-326) (Ebola virus (EBOV), UniProt Q05128 1-326)
T1 sequence: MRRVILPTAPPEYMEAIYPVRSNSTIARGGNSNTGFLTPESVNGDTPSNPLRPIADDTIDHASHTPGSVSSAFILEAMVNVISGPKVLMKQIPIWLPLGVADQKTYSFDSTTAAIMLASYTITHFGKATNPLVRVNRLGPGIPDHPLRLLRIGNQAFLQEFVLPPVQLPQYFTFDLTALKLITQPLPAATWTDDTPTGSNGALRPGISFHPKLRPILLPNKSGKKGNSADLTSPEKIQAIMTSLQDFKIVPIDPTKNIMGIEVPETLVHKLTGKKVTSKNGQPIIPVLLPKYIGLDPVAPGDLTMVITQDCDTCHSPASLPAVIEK
Assay: co-immunoprecipitation with anti-Myc antibody from 293T lysates

B1: TSG101 1-140 truncated mutant, C-terminally tagged with a Myc epitope (other)
chain: MAVSESQLKKMVSKYKYRDLTVRETVNVITLYKDLKPVLDSYVFNDGSSRELMNLTGTIPVPYRGNTYNIPICLWLLDTYPYNPPICFVKPTSSMTIKTGKHVDANGKIYLPYLHEWKHPQSDLLGLIQVMIVVFGDEPP
notes: Expressed in 293T cells
B1: no binding.

Source: patent US20080187528A1 (FUNCTIONAL GENETICS, published 2008)
